Five molecules from patent US20050085418A1 (CELLTECH R AND D, published 2005) can be followed below.

B1: purified human sclerostin-FLAG® fusion protein (other, UniProt Q9BQB4 24-213, looked up)
chain: QGWQAFKNDATEIIPELGEYPEPPPELENNKTMNRAENGGRPPHHPFETKDVSEYSCRELHFTRYVTDGPCRSAKPVTELVCSGQCGPARLLPNAIGRGKWWRPSGPDFRCIPDRYRAQRVQLLCPGGEAPRARKVRLVASCKCKRLTRFHNQSELKDFGTEAARPQKGRKPRPRARSAKANQAELENAY
notes: Immobilised on CM5 chips (200 and 400 RU) or on anti-FLAG M2 agarose beads; also called FLAG®-Beer; FLAG®-tagged sclerostin; not shown: FLAG tag

In assay [1] the target is purified human sclerostin-FLAG® fusion protein (human) (UniProt Q9BQB4). Put plainly: SPR (Biacore), immobilised sclerostin. A general note: Surface plasmon resonance follows binding to a sensor surface in real time, without labels.
Assay [2] has as its target T1, Noggin-Fc fusion protein (murine, UniProt P97466 28-232, limits assumed).
T1 construct: also called recombinant murine noggin; not shown: Fc portion, captured and detected with anti-human Fc antibodies
T1 sequence (looked up): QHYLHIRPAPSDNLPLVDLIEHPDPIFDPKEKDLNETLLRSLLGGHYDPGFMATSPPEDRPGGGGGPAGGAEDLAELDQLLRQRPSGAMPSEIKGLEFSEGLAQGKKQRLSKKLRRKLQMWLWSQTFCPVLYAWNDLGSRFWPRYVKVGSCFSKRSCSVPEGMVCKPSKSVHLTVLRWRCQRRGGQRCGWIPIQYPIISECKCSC
The experiment in a line: SPR, chip-immobilised recombinant human sclerostin, graded concentrations of recombinant murine noggin (FIG. 2B). The procedure:
(§1) The running buffer for Biacore analysis was HBS-EP CMD (10 mM HEPES, 150 mM NaCl, 3 mM EDTA, 0.005% polysorbate 20, and 1 mg/ml carboxyl-methyl dextran). […] The data was processed using the Bia-evaluation software by first correcting for background binding in a non-functionalized flow cell and analyzing the resulting binding curves for on/off rates.

In assay [3] the target is T2, recombinant murine chordin (murine, UniProt Q9Z0E2 27-948, limits assumed).
T2 sequence (looked up): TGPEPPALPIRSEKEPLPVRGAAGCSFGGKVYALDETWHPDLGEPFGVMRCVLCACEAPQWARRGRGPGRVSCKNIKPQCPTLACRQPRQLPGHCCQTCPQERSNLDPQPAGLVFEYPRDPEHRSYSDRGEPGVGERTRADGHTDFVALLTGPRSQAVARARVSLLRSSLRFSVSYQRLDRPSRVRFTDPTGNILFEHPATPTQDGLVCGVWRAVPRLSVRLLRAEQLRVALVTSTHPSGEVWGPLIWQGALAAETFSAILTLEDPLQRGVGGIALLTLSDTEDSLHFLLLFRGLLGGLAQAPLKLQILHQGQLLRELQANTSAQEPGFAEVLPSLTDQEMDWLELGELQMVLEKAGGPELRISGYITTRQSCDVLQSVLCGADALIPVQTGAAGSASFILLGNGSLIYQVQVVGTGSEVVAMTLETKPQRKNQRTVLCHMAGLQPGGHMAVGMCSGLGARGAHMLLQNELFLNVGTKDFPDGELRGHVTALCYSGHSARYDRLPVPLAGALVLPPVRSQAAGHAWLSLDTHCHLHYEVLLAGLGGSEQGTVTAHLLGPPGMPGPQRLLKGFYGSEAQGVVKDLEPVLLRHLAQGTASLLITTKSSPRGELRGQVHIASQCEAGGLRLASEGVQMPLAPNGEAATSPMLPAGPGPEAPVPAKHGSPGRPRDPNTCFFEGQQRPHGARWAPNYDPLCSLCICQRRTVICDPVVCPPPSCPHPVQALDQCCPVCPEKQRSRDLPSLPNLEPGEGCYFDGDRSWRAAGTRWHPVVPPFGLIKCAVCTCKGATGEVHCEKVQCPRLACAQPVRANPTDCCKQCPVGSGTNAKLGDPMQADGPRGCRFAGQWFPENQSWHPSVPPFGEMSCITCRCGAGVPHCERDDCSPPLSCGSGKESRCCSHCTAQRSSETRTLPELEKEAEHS
The experiment in a line: SPR, chip-immobilised recombinant human sclerostin, graded concentrations of recombinant murine chordin (FIG. 2A). The procedure: as §1

Assay [4] deals with T2, recombinant murine chordin. The experiment in a line: SPR (Biacore), human sclerostin immobilised on the chip, rmChordin injected at 0.62 to 10 ug/ml [box under the left panel].
The target in assay [5] is T1, Noggin-Fc fusion protein. The experiment in a line: SPR (Biacore), human sclerostin immobilised on the chip, rmNoggin injected at 0.31 to 10 ug/ml [box under the right panel].
Assay [6] deals with B1. Put plainly: SPR (Biacore), immobilised sclerostin. How it is done: The running buffer for Biacore analysis was HBS-EP CMD (10 mM HEPES, 150 mM NaCl, 3 mM EDTA, 0.005 % polysorbate 20, and 1 mg/ml carboxyl-methyl dextran). […] BMP proteins were diluted in running buffer and injected over the sensor chip using the Biacore 3000 instrumentation. The data was processed using the Bia-evaluation software (Biacore) by first correcting for background binding in a non-functionalized flow cell and analyzing the resulting binding curves for on/off rates.

BMP-5 (ligand) returned a Kd in assay [1] of under 15 nM.

As to BMP-7 (ligand), in assay [1], the Kd is under 15 nM.

For the molecule BMP-4 (ligand), the Kd in assay [1] is under 15 nM.

Consider B1, for which the Kd came to 2.92 nM with Noggin-Fc fusion protein [2] and 1.76 nM in assay [3]. Besides, the koff in assay [4] turned out to be 0.00209 s⁻¹; in the assay with Noggin-Fc fusion protein [5] it was 0.00435 s⁻¹. In addition, the kon in assay [4] worked out at 1.18e+06 M⁻¹ s⁻¹; with Noggin-Fc fusion protein [5] it was 1.46e+06 M⁻¹ s⁻¹.

B2: BMP-2 (ligand)
chain: QAKHKQRKRLKSSCKRHPLYVDFSDVGWNDWIVAPPGYHAFYCHGECPFPLADHLNSTNHAIVQTLVNSVNSKIPKACCVPTELSAISMLYLDENEKVVLKNYQDMVVEGCGCR
modifications: Disulfide-linked homodimer; one copy of the mature chain is given.
notes: Bought recombinant protein; also called recombinant BMP protein (R&D Systems)
For the molecule B2, the Kd in assay [6] is under 10 nM.

As a reminder, the Kd is a measure of binding affinity in units of concentration. Broadly, the koff is the rate constant with which the complex falls apart. Usually kon stands for the second-order rate constant of association.
